According to US9187525B2, “Methods of treating ophthalmic diseases using NPR-B agonists” (Shire Orphan Therapies GmbH, dated 2015):
Numbered stars: 1 amine (or outer) side, 2 acyl side, 3 side chain; on linkers, the order of the positions; unused ones are H or OH. Square brackets hold non-standard residues; d marks the D form. Primed or numbered codes have the meaning given here. Ends that are not written are not given here. * marks the point of attachment. Eal = rac-imidazolidine-2-carboxylic acid, O=C(C1N([*:1])CCN1[*:3])[*:2]; 6182 = 5-Butyl-2H-pyrazole-3-carboxylic acid, CCCCc1cc(C(=O)*)[nH]n1; Pro(trans-4-NH2) = O=C([C@@H]1C[C@@H](N[*:3])CN1[*:1])[*:2]; Pro(trans-4-guanidino) = N=C(N)N[C@H]1CN[C@H](C(=O)O)C1; Sni = (S)-nipecotic acid, O=C([C@H]1CCCN([*:1])C1)[*:2]; Azetidine3carboxylic = O=C(C1CN([*:1])C1)[*:2]; Hyp = O=C(O)[C@@H]1C[C@@H](O)CN1; NMeL = CN[C@@H](CC(C)C)C(=O)O; dDap(Me2)′ = not defined here; AR‑201‑48 = not defined here; AR‑201‑49 = not defined here; AR‑201‑54 = not defined here; Tle = CC(C)(C)[C@H](N)C(=O)O; dNle = CCCC[C@@H](N)C(=O)O; dOrn = NCCC[C@@H](N)C(=O)O; SH‑158 = not defined here; Octanoyl = CCCCCCCC(=O)*; Ac5c = NC1(C(=O)O)CCCC1; dAze = O=C(O)[C@H]1CCN1; Hexanoyl = CCCCCC(=O)*; Occ = octanoic acid; βAla = NCCC(=O)O; Sar = CNCC(=O)O

T1: natriuretic peptide receptor-B (human)
T1 chain: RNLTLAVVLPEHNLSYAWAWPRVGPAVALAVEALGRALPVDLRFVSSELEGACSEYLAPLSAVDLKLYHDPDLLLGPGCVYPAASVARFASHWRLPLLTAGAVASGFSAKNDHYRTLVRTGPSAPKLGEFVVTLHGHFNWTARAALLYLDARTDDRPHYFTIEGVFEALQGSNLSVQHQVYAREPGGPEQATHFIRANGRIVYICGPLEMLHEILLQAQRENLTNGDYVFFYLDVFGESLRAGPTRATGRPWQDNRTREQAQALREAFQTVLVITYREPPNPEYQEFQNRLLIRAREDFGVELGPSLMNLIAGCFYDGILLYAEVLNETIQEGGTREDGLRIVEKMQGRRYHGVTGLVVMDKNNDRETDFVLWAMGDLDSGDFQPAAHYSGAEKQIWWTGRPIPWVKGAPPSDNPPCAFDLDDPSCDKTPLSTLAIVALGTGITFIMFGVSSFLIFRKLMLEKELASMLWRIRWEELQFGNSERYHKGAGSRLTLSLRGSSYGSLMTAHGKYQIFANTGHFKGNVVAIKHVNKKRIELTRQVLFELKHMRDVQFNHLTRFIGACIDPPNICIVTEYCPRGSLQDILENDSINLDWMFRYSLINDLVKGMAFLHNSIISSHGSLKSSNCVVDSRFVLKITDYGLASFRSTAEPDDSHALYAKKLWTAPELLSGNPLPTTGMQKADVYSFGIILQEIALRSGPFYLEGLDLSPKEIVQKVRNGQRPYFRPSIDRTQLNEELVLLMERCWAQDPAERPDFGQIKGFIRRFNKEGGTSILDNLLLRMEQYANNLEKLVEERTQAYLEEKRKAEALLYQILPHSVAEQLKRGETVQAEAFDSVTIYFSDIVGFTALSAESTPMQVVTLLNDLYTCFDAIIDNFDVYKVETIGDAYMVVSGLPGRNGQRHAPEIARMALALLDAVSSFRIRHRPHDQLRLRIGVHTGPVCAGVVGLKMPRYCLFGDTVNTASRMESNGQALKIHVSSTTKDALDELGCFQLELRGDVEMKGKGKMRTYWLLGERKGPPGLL

B1: JAL-1272 (peptide)
peptide: Octanoyl-[dA]F[dL]L[Pro(trans-4-guanidino)]LDRI-NH2
B2: JAL-1295 (peptide)
peptide: Octanoyl-[Sni]F[dL]L[Pro(trans-4-NH2)][NMeL]DRI-NH2
B3: JAL-1317 (peptide)
peptide: Octanoyl-[Sni]F[dR]L[Pro(trans-4-NH2)][NMeL]DRI-NH2
B4: JAL-1287 (peptide)
peptide: XXFXLXXDRI
modifications: Occ-Sni-Phe-dap(Me2)-Leu-Hyp-Nml-Asp-Arg-Ile-NH2
B5: JAL-0634 (peptide)
peptide: Hexanoyl-P[dA]FGLKLDRI-NH2
B6: JAL-1305 (peptide)
peptide: Octanoyl-[dA]F[dR]L[Hyp][NMeL]DR[Tle]-NH2
B7: JAL-0635 (peptide)
peptide: Hexanoyl-[dA][dA]FGLKLDRI-NH2
B8: JAL-1291 (peptide)
peptide: [AR‑201‑48][dR]L[Hyp][NMeL]DRI-NH2
modifications: reading uncertain; also: printed as (AR-201-48)-arg-Leu-Hyp-Nml-Asp-Arg-Ile-
B9: JAL-1321 (peptide)
peptide: [Occ][Sni]F[dL]L[Pro(trans-4-NH2)](Ac)[NMeL]DRI-NH2
B10: JAL-1325 (peptide)
peptide: [Occ][Sni]F[dDap(Me2)′]L[Pro(trans-4-NH2)][NMeL]DRI-NH2
B11: JAL-1283 (peptide)
peptide: Octanoyl-[dA]F[dL]L[Hyp][SH‑158]DRI-NH2
modifications: reading uncertain; also: printed as Occ-ala-Phe-leu-Leu-Hyp-(SH-158)-Asp-Arg-Ile-NH2
B12: JAL-1273 (peptide)
peptide: Octanoyl-[Sar]F[dR]L[Hyp][NMeL]DRI-NH2
B13: JAL-1288 (peptide)
peptide: XAFXLXXDRI
modifications: Occ-ala-Phe-orn(Me2)-Leu-Hyp-Nml-Asp-Arg-Ile-NH2
B14: JAL-1324 (peptide)
peptide: XFRLXXDRI
HELM: PEPTIDE1{[CCCCCCCCS(=O)(=O)CCC(=O)[*:2]].F.[dR].L.[Hyp].[meL].D.R.I.[am]}$$$$V2.0; N-terminus assumed
SMILES: CCCCCCCCS(=O)(=O)CCC(=O)N[C@@H](Cc1ccccc1)C(=O)N[C@H](CCCNC(=N)N)C(=O)N[C@@H](CC(C)C)C(=O)N1C[C@H](O)C[C@H]1C(=O)N(C)[C@@H](CC(C)C)C(=O)N[C@@H](CC(=O)O)C(=O)N[C@@H](CCCNC(=N)N)C(=O)N[C@H](C(N)=O)[C@@H](C)CC
B15: JAL-1318 (peptide)
peptide: Octanoyl-[Sni]F[dOrn]L[Pro(trans-4-NH2)][NMeL]DRI-NH2
B16: JAL-1302 (peptide)
peptide: Octanoyl-[Sni]F[dL]L[Hyp][NMeL]DRI-NH2
B17: JAL-1284 (peptide)
peptide: Octanoyl-[dA]F[dR]L[Hyp][SH‑158]DRI-NH2
modifications: reading uncertain; also: printed as Occ-ala-Phe-arg-Leu-Hyp-(SH-158)-Asp-Arg-Ile-NH2
B18: JAL-1289 (peptide)
peptide: XXFXLXXDRI
modifications: Occ-Sni-Phe-orn(Me2)-Leu-Hyp-Nml-Asp-Arg-Ile-NH2
B19: JAL-1297 (peptide)
peptide: Octanoyl-[Sni]F[dR]L[Hyp][NMeL]DRI-NH2
B20: JAL-1296 (peptide)
peptide: Octanoyl-[dA]F[dL]L[Pro(trans-4-NH2)][NMeL]DRI-NH2
B21: JAL-1316 (peptide)
peptide: [AR‑201‑54]F[dR]L[Hyp][NMeL]DRI-NH2
modifications: reading uncertain; also: printed as (AR-201-54)-Phe-arg-Leu-Hyp-Nml-Asp-Arg-Ile-NH2
B22: JAL-1314 (peptide)
peptide: XAFRLXXDRI
modifications: Occ-ala-Phe-arg-Leu-Hyp-Dap(Me2)-Asp-Arg-Ile-NH2
B23: JAL-1298 (peptide)
peptide: 6182-[dA]F[dR]L[Hyp][NMeL]DRI-NH2
B24: JAL-0633 (peptide)
peptide: Hexanoyl-S[dA]FGLKLDRI-NH2
B25: JAL-1275 (peptide)
peptide: Octanoyl-[Azetidine3carboxylic]F[dR]L[Hyp][NMeL]DRI-NH2
B26: JAL-1306 (peptide)
peptide: Octanoyl-[dA]F[dR]L[Hyp][NMeL]DR[Ac5c]-NH2
B27: JAL-1282 (peptide)
peptide: Octanoyl-[dA]FGL[Eal][NMeL]DRI-NH2
B28: JAL-1281_01 (peptide)
peptide: Octanoyl-[dA]F[dL]L[Eal][NMeL]DRI-NH2
B29: JAL-1292 (peptide)
peptide: [AR‑201‑49]F[dR]L[Hyp][NMeL]DRI-NH2
modifications: reading uncertain; also: printed as (AR-201-49)-Phe-arg-Leu-Hyp-Nml-Asp-Arg-Ile-NH2
B30: JAL-1322 (peptide)
peptide: [Occ][Sni]F[dL]L[Pro(trans-4-NH2)](Gly)[NMeL]DRI-NH2
B31: JAL-1319 (peptide)
peptide: Octanoyl-[Sni]F[dNle]L[Pro(trans-4-NH2)][NMeL]DRI-NH2
B32: JAL-1320 (peptide)
peptide: [Occ][Sni]FGL[Pro(trans-4-NH2)][NMeL]DRI-NH2
B33: JAL-1293 (peptide)
peptide: [AR‑201‑48][dL]L[Hyp][NMeL]DRI-NH2
modifications: reading uncertain; also: printed as (AR-201-48)-leu-Leu-Hyp-Nml-Asp-Arg-Ile-
B34: JAL-1274 (peptide)
peptide: Octanoyl-[dAze]F[dR]L[Hyp][NMeL]DRI-NH2
B35: JAL-1294 (peptide)
peptide: [AR‑201‑49]F[dL]L[Hyp][NMeL]DRI-NH2
modifications: reading uncertain; also: printed as (AR-201-49)-Phe-leu-Leu-Hyp-Nml-Asp-Arg-Ile-NH2
B36: JAL-1323 (peptide)
peptide: [Occ][Sni]F[dL]L[Pro(trans-4-NH2)](βAla)[NMeL]DRI-NH2
B37: JAL-1315 (peptide)
peptide: XAFRXXXDRI
modifications: Occ-ala-Phe-arg-Dap(Me2)-Hyp-Nml-Asp-Arg-Ile-NH2

Target: T1, natriuretic peptide receptor-B
Assay: cell-based or functional assay
In the case of B1, the “EC50 group, cGMP in GTM-3 cells” value is reported as no more than 5 µM. B2 was tested, and the “EC50 group, cGMP in GTM-3 cells” value was no more than 1 µM. In the case of B3, the “EC50 group, cGMP in GTM-3 cells” value is reported as no more than 1 µM. In the case of B4, the “EC50 group, cGMP in GTM-3 cells” value is reported as no more than 1 µM. With B5 the “EC50 group, cGMP in GTM-3 cells” value was no more than 15 µM. In the case of B6, the “EC50 group, cGMP in GTM-3 cells” value is reported as no more than 1 µM. For B7, the “EC50 group, cGMP in GTM-3 cells” value was no more than 15 µM. For B8, the “EC50 group, cGMP in GTM-3 cells” value was no more than 15 µM. For B9, the “EC50 group, cGMP in GTM-3 cells” value was no more than 5 µM. In the case of B10, the “EC50 group, cGMP in GTM-3 cells” value is reported as no more than 1 µM. With B11 the “EC50 group, cGMP in GTM-3 cells” value was no more than 1 µM. B12 was tested, and the “EC50 group, cGMP in GTM-3 cells” value was no more than 5 µM. With B13 the “EC50 group, cGMP in GTM-3 cells” value was no more than 1 µM. B14 was tested, and the “EC50 group, cGMP in GTM-3 cells” value was no more than 5 µM. For B15, the “EC50 group, cGMP in GTM-3 cells” value was no more than 1 µM. For B16, the “EC50 group, cGMP in GTM-3 cells” value was no more than 1 µM. B17 was tested, and the “EC50 group, cGMP in GTM-3 cells” value was no more than 1 µM. In the case of B18, the “EC50 group, cGMP in GTM-3 cells” value is reported as no more than 1 µM. B19 was tested, and the “EC50 group, cGMP in GTM-3 cells” value was no more than 1 µM. In the case of B20, the “EC50 group, cGMP in GTM-3 cells” value is reported as no more than 1 µM. In the case of B21, the “EC50 group, cGMP in GTM-3 cells” value is reported as no more than 5 µM. For B22, the “EC50 group, cGMP in GTM-3 cells” value was no more than 5 µM. B23 was tested, and the “EC50 group, cGMP in GTM-3 cells” value was no more than 5 µM. With B24 the “EC50 group, cGMP in GTM-3 cells” value was no more than 15 µM. For B25, the “EC50 group, cGMP in GTM-3 cells” value was no more than 5 µM. For B26, the “EC50 group, cGMP in GTM-3 cells” value was no more than 5 µM. With B27 the “EC50 group, cGMP in GTM-3 cells” value was no more than 15 µM. With B28 the “EC50 group, cGMP in GTM-3 cells” value was no more than 5 µM. In the case of B29, the “EC50 group, cGMP in GTM-3 cells” value is reported as no more than 5 µM. With B30 the “EC50 group, cGMP in GTM-3 cells” value was no more than 1 µM. For B31, the “EC50 group, cGMP in GTM-3 cells” value was no more than 5 µM. For B32, the “EC50 group, cGMP in GTM-3 cells” value was no more than 1 µM. For B33, the “EC50 group, cGMP in GTM-3 cells” value was no more than 15 µM. With B34 the “EC50 group, cGMP in GTM-3 cells” value was no more than 5 µM. For B35, the “EC50 group, cGMP in GTM-3 cells” value was no more than 1 µM. With B36 the “EC50 group, cGMP in GTM-3 cells” value was no more than 1 µM. For B37, the “EC50 group, cGMP in GTM-3 cells” value was no more than 15 µM.
